Reference: publication PMC1185577 (Nucleic Acids Research, 2005)

Target: T1, glutathione S-transferase (GST)-L5 (S. cerevisiae, UniProt P26321 1-297)
T1 sequence (looked up): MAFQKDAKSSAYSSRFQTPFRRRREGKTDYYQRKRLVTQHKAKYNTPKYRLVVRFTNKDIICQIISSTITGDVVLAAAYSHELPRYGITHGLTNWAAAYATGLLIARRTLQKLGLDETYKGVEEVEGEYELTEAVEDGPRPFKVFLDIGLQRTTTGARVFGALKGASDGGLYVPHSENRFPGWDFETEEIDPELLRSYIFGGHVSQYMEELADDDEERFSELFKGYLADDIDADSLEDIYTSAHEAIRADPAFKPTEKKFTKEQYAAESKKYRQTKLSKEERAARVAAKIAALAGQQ
Assay: pull-down

- binding result: binds
B1: maltose-binding protein (MBP)-Rrs1p (natural protein, S. cerevisiae, UniProt Q08746 1-203, looked up)
chain: MSAEDYKNLPVTVEKPIPVVYDLGNLAAFDSNVLDKNDLDSSNARREEKIKSLTRDNVQLLINQLLSLPMKTTTESVGGTGGQSSVMTLLQLPDPTTDLPREKPLPKAKAMTKWEKFAAKKGIKPKERAGKMIYDEASGEWVPKWGYKGANKKLDDQWLVEVDDKVKGTDNELIDPRTLNRAERKRLVKKNEKQQRRNMKNAL
